Drawing on patent US20080182247A1, this text covers IgG synthesis by purified B cells stimulated with LPS (control without T cells) for one substance.

In the assay the target is CD70 (human) (UniProt P32970). Description: cell-based or functional assay.
Sequence of CD70 (human) (P32970 whole entry): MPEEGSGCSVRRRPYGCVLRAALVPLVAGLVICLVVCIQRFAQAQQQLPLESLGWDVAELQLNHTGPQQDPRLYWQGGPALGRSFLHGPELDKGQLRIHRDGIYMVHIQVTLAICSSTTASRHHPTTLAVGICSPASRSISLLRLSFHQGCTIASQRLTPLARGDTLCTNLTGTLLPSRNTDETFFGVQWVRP

Substance “anti-CD70 monoclonal antibody (HNE51) (DAKO)” displayed an IgG synthesis by purified B cells stimulated with LPS (control without T cells) of 125 µg/mL.
